The results in this text go back to FireProtDB (doi:10.1021/bi00250a042).

The conditions of this data set: Hordeum vulgare; pH 6.3; 25 °C; GdnHCl; Fluorescence; MES 450 mM; reversible: yes; whole UniProt chain shown.

B1: Subtilisin-chymotrypsin inhibitor-2A wild type, P01053 (protein)
chain: MSSVEKKPEGVNTGAGDRHNLKTEWPELVGKSVEEAKKVILQDKPEAQIIVLPVGTIVTMEYRIDRVRLFVDKLDNIAQVPRVG
B1: the denaturant m value came to 1.89 kcal/mol/M, the “denaturant midpoint (higher = more stable)” value was 3.99 M and the unfolding free energy was determined as 7.53 kcal/mol.
